Laboratory results from patent US11866736B2, “Protein prostheses for mitochondrial diseases or conditions” (The General Hospital Corporation, priority 2015, dated 2024).
Where a chain is given by its changes, count along the chain named. Numbers in names are those of the source.

B1: LbNOX: water-forming NADH oxidase endogenous to Lactobacillus brevis; tested with C-terminal FLAG tag (protein, listed as Lactobacillus brevis)
chain: KVTVVGCTHAGTFAIKQILAEHPDAEVTVYERNDVISFLSCGIALYLGGKVADPQGLFYSSPEELQKLGANVQMNHNVLAIDPDQKTVTVEDLTNHAQTTESYDKLVMTSGSWPIVPKIPGIDSDRVKLCKNWAHAQALIEDAKEAKRITVIGAGYIGAELAEAYSTTGHDVTLIDAMARVMPKYFDADFTDVIEQDYRDHGVQLALGETVESFTDSATGLTIKTDKNSYETDLAILCIGFRPNTDLLKGKVDMAPNGAIITDDYMRSSNPDIFAAGDSAAVHYNPTHQNAYIPLATNAVRQGILVGKNLVKPTVKYMGTQSSSGLALYDRTIVSTGLTLAAAKQQGLNAEQVIVEDNYRPEFMPSTEPVLMSLVFDPDTHRILGGALMSKYDVSQSANTLSVCIQNENTIDDLAMVDMLFQPNFDRPFNYLNILAQAAQAKVAQSVNA
modifications: C-terminal FLAG tag
B2: TPNOX: NADPH-specific quintuple mutant (G159A/D177A/A178R/M179S/P184R) of LbNOX (protein)
chain: B1 chain with G158A, D176A, A177R, M178S, P183R

Test system: HeLa Tet3G cells
Test: Cell proliferation assays: rescue of the proliferation defect induced by respiratory chain inhibitors (nuclei counting)
Type: cell-based, human
Details: no pyruvate, doxycycline-inducible expression; for rescue of proliferation defect caused by piericidin: 1 μM piericidin
Description: Five hundred HeLa Tet3G NDI1, Luciferase, LbNOX or mitoLbNOX cells were seeded in 200 μl of DMEM (DMEM (US Biological, D9800), 3.7 g/L NaHCO3, 10% dialyzed FBS (Life Technologies, 26400-044)) per well in a black 96-well plate with clear bottom (Corning, 3904). Twenty four hours after seeding, media was exchanged to DMEM without pyruvate (DMEM (US Biological, D9802), 15.9 mg/L phenol red, 3.7 g/L NaHCO3, 10% dialyzed FBS (Life Technologies, 26400-044))±10 μg/ml chloramphenicol±30 ng/ml ethidium bromide±1 mM pyruvate±300 ng/ml doxycycline. After 0, 2, 3, 4, 5 and 6 days, media was aspirated and cells were fixed by adding 100 μl of 4% paraformaldehyde in PBS and incubating at room temperature for at least 30 min. Paraformaldehyde solution was aspirated and cells were stained with 200 μl of 1 μg/ml Hoechst 33345 in PBS. Plates were covered with sealing aluminum foil and stored at 4° C. before counting cells in each well with Molecular Dynamics IMAGEXPRESS® Ultra (see “Nuclei counting using Molecular Devices IMAGEXPRESS® Ultra,” below).
One thousand HeLa Tet3G NDI1, Luciferase, LbNOX or mitoLbNOX cells were seeded in 200 μl of DMEM (DMEM (US Biological, D9800), 3.7 g/L NaHCO3, 10% dialyzed FBS (Life Technologies, 26400-044)) per well in a black 96-well plate with clear bottom (Corning, 3904). Twenty four hours after seeding, 10 μl of 6 μg/ml doxycycline (300 ng/ml final concentration) or water was added to each well. Twenty four hours after addition of doxycycline, media was exchanged to DMEM without pyruvate (DMEM (US Biological, D9802), 15.9 mg/L phenol red, 3.7 g/L NaHCO3, 10% dialyzed FBS (Life Technologies, 26400-044)), ±1 μM piericidin, ±1 μM antimycin, ±1 mM pyruvate and ±300 ng/ml doxycycline. After 0, 1, 2, 3 and 4 days, media was aspirated and cells were fixed by adding 100 μl of 4% paraformaldehyde in PBS and incubating at room temperature for at least 30 min. Paraformaldehyde solution was aspirated and cells were stained with 200 μl of 1 μg/ml Hoechst 33345. Plates were covered with sealing aluminum foil and stored at 4° C. before counting cells in each well with Molecular Dynamics IMAGEXPRESS® Ultra (see “Nuclei counting using Molecular Devices IMAGEXPRESS® Ultra,” below).
Two thousand HeLa Tet3G Luciferase cells were seeded in 200 μl of DMEM (DMEM (US Biological, D9800), 3.7 g/L NaHCO3, 10% dialyzed FBS (Life Technologies, 26400-044)) per well in a black 96-well plate with clear bottom (Corning, 3904). Twenty four hours after seeding, media was exchanged to DMEM without pyruvate (DMEM (US Biological, D9802), 15.9 mg/L phenol red, 3.7 g/L NaHCO3, 10% dialyzed FBS (Life Technologies, 26400-044))±1 μM piericidin, ±indicated concentrations of pyruvate, lactate, malate, oxaloacetate, nicotinamide mononucleotide ([…]) or PJ34. After 3 days, media was aspirated and cells were fixed by adding 100 μl of 4% paraformaldehyde in PBS and incubating at room temperature for at least 30 min. Paraformaldehyde solution was aspirated and cells were stained with 200 μl of 1 μg/ml Hoechst 33345. Plates were covered with sealing aluminum foil and stored at 4° C. before counting cells in each well with Molecular Dynamics IMAGEXPRESS® Ultra (see “Nuclei counting using Molecular Devices IMAGEXPRESS® Ultra,” below).
Images of 96-well plates with fixed cells stained with Hoechst 33345 were collected using Molecular Devices IMAGEXPRESS® Micro XLS. Four images were taken to cover the whole well. Images were analyzed and nuclei number per well was counted using CellProfiler 2.0 image analysis software (Carpenter, et al., Genome Biol., 7:R100, 2006; and Kamentsky, et al., Bioinformatics, 27:1179, 2011). […]

Molecule	rescue of proliferation defect caused by ethidium bromide (30 ng/ml ethidium bromide)	rescue of proliferation defect caused by antimycin (1 μM antimycin)	rescue of proliferation defect caused by piericidin	rescue of proliferation defect caused by chloramphenicol (10 μg/ml chloramphenicol)
B1	rescued completely	rescued completely	rescued completely	rescued completely
B2			not	
